The values below come from publication PMC5947699, “Cloning, purification and structure determination of the HIV integrase-binding domain of lens epithelium-derived growth factor” (Acta Crystallographica. Section F, Structural Biology …, 2018).

The data set concerns the molecule itself. Kind of data set: AUC; sedimentation velocity, twofold dilution series starting from 6.5 mg/ml, 50 000 rev/min, 20°C, absorbance (280 nm) and interference optics, c(s) model in SEDFIT; buffer similar to that used for crystallization; monomer to dimer; self-association not saturated.

B1: HIV integrase-binding domain (IBD) of lens epithelium-derived growth factor (LEDGF)/p75, His tag cleaved (domain or fragment, human)
chain: GGSMGSGGGGSGGGGSGGGGAAAMETSMDSRLQRIHAEIKNSLKIDNLDVNRCIEALDELASLQVTMQQAQKHTEMITTLKKIRRFKVSQVIMEKSTMLYNKFKNMFLVGE
notes: 24-amino-acid linker ending with methionine that precedes Glu345 of the IBD; left on the protein after TEV cleavage (ENLYFQ/G); Intact mass 11 882 Da measured against 11 881.66 Da calculated; The linker was not visible in the electron density; also called IBD protein; free IBD; source: E. coli B834 (DE3), purified (IMAC, SEC, TEV cleavage, reverse IMAC) for crystallization; E. coli C41 (DE3), …
What is called Kd is the equilibrium constant for the complex coming apart. Lower therefore signals tighter binding. Broadly, the stoichiometry N is the number of molecules, sites or subunits per partner or assembly. As for B1, the Kd was approximately 2000 µM and the “stoichiometry N” value was 2.
